Molecular target: T1, CCR2REP (Artificial Sequence, UniProt P05725 SEQ:11-173)
T1 chain: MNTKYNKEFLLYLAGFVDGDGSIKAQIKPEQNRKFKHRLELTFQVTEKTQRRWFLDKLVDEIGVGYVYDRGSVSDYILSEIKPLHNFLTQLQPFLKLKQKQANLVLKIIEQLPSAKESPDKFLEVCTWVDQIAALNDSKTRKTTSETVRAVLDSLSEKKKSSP
Assay: cell_activity; LacZ reporter with truncated CMV promoter, HEK 293
Details: tags: N-terminal SV40 NLS, C-terminal Kid-1 KRAB; chain copies: 2
Description: An E. coli beta-galactosidase (LacZ) gene was inserted into the mammalian expression vector pCI (Promega) between PstI and NotI. In this plasmid, LacZ expression is driven by a truncated CMV promoter (corresponding to the 3′ 442 bp of the canonical CMV promoter, SEQ ID NO: 47). A CCR2 recognition sequence (SEQ ID NO: 45) was then inserted at the 5′ end of this promoter (see FIG. 6A).
HEK 293 cells (1×10⁵) were transfected first with either the pCI empty vector or pCI carrying the CCR2REP gene under the control of a constitutive CMV promoter using Lipofectamine 2000 according to the manufacturer's instructions (Invitrogen). 6 hours post-transfection, transfection complexes were removed and replaced with fresh media. 24 hours post-transfection, the cells were re-transfected with the LacZ reporter plasmid using Lipofectamine 2000. As a measure of transfection efficiency, additional cells were transfected at both time points with pCI eGFP. […]
Lysates from transfected cells were subjected to a standard o-nitrophenyl-β-D-galactoside (ONPG) assay (Current Protocols in Molecular Biology. ed. V. B. Chanda. Vol. 2. 2004, John Wiley & Sons, Inc). […] The reaction was stopped with 500 μL 1M Na₂CO₃ after one hour, and the absorbance at 420 nm was measured using a NanoDrop ND-1000 spectrophotometer. β-galactosidase activity was determined using standard equations.

B1: CCR2 palindrome (dsDNA)
DNA 1: AGGCATCTCGTACGAGATGCCT
DNA 2: AGGCATCTCGTACGAGATGCCT
B1 gave an activity of ~2.6 fold repression.

Reference: patent publication US20140010797, “Fusion Molecules of Rationally-Designed DNA-Binding Proteins and Effector Domains” (DUKE UNIVERSITY, published 2014)
